Data taken from PMC6562043 (Scientific Reports, 2019).

Molecular target: T1, synthesized human Aβ42 peptide (human, UniProt P05067 672-713)
T1 construct: also called Aβ peptide
Test: ELISA
Details: one partner purified

B1: human PrP^C (transgene of TgHuPrP mice) (natural protein)
chain: not shown
**Q.** B1 was tested. Which “binding relative to mouse PrP^C, corrected for PrP expression” value did it give?
**A.** Its value is 177 ± 9.5%.
